The series addresses T1, TUT7 RNA-binding region (Homo sapiens, UniProt Q5VYS8 1362-1452).
T1 sequence: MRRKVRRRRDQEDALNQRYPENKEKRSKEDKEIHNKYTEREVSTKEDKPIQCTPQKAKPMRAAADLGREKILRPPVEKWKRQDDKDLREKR
The series can be described thus: fluorescence polarization; FP: 45 mM Tris-HCl pH 8.0, 90 mM NaCl, 0.2% Tween-20, 22 C, 60 min, 30 ul. The note with it: protein: recombinant; tags: GST fusion (expressed in BL21 codon plus); label: 5' Cy5. A general note: In fluorescence polarisation assays a small probe gives low polarisation when free and higher when bound to something large.

B1: top scoring Hamiltonian sequence for TUT7 (ssRNA)
RNA: GCAGUCUUAACGCUGCCUUA
As to B1, the binding result is reported as “binds”.

(Values after PMC6023938, “Global pairwise RNA interaction landscapes reveal core features of protein recognition”.)
